Results reported in paper PMC10404244, “Control of motor landing and processivity by the CAP-Gly domain in the KIF13B tail” (Nature Communications, 2023).
Changes are numbered by the printed parent chain. In names and notes the source's numbering stands.

How the values were obtained:
[1] = target: the molecule itself; test: two-colour single-molecule TIRF microscopy; sfGFP- and mScarlet (I)-tagged KIF13BK414A co-expressed and purified together (molar ratio ~1:5 mScarlet (I): sfGFP), seen on immobilised tyrosinated and CPA-treated detyrosinated microtubules; 2 mM ATP or 2 mM ADP
[2] = target: T1, tyrosinated microtubules polymerized from recombinant human α1A/βIII tubulin (human, UniProt Q71U36 1-451; Q13509 1-450); test: TIRF microscopy microtubule-binding assay (standard deviation map); differentially labelled tyrosinated and detyrosinated taxol microtubules held by biotin-streptavidin in the same chamber, sfGFP motors in solution, 2 mM ATP, HP assay buffer pH 7.0; settings: both partners purified
T1 construct: human alpha-tubulin isotype α1A, fully tyrosinated; human beta-tubulin isotype βIII; Plasmids (pFAST-Dual) were gifts from A. Roll-Mecak; also called recombinant human tubulin (fully tyrosinated); not shown: His tag (from the HisTrap purification)

[3] = target: the molecule itself; test: mass photometry; 5, 25 and 100 nM protein in HP buffer (90 mM HEPES, 10 mM PIPES, 50 mM K-acetate, 2 mM Mg-acetate, 1 mM EGTA, 10% glycerol, pH 7.0), room temperature; result told over the whole range; monomer to dimer
[4] = target: the molecule itself; test: mass photometry; lower concentration(s) of the construct (KIF13B^Δtail: the lower of two; KIF13B^CG: low and intermediate), HP buffer pH 7.0, room temperature; monomer to dimer

T1 sequence (Q71U36 whole entry, chain 1 of 2): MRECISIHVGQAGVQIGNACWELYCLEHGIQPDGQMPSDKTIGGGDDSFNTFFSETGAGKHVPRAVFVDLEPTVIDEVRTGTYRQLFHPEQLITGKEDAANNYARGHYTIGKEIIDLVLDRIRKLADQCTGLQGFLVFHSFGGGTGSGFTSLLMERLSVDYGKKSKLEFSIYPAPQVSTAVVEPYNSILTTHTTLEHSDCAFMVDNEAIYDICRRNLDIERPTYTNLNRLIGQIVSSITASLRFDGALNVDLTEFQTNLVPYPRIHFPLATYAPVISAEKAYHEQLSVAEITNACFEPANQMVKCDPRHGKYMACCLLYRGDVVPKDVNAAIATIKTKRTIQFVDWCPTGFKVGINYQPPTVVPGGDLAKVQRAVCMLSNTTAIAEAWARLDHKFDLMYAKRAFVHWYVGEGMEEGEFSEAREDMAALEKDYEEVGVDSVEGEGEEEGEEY
T1 sequence (Q13509 whole entry, chain 2 of 2): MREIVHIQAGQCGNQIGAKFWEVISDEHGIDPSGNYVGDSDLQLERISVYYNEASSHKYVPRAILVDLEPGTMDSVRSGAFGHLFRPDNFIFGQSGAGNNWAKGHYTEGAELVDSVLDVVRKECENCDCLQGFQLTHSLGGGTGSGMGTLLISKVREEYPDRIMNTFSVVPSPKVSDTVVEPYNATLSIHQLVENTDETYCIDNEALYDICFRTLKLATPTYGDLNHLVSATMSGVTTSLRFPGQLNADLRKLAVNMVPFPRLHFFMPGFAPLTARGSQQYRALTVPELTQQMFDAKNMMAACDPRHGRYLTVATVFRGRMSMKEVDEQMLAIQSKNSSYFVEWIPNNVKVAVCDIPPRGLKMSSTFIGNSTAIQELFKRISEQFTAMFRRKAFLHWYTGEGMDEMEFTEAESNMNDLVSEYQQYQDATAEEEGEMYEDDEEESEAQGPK

B1: KIF13B K414A, full-length human KIF13B with the point mutation K414A, C-terminal sfGFP-StrepII (natural protein, UniProt Q9NQT8 1-1826, looked up)
chain: MGDSKVKVAVRIRPMNRRETDLHTKCVVDVDANKVILNPVNTNLSKGDARGQPKVFAYDHCFWSMDESVKEKYAGQDIVFKCLGENILQNAFDGYNACIFAYGQTGSGKSYTMMGTADQPGLIPRLCSGLFERTQKEENEEQSFKVEVSYMEIYNEKVRDLLDPKGSRQTLKVREHSVLGPYVDGLSKLAVTSYKDIESLMSEGNKSRTVAATNMNEESSRSHAVFKITLTHTLYDVKSGTSGEKVGKLSLVDLAGSERATKTGAAGDRLKEGSNINKSLTTLGLVISALADQSAGKNKNKFVPYRDSVLTWLLKDSLGGNSKTAMVATVSPAADNYDETLSTLRYADRAKHIVNHAVVNEDPNARIIRDLREEVEKLREQLTKAEAMKSPELKDRLEESEKLIQEMTVTWEEALRKTEEIAQERQKQLESLGISLQSSGIKVGDDKCFLVNLNADPALNELLVYYLKEHTLIGSANSQDIQLCGMGILPEHCIIDITSEGQVMLTPQKNTRTFVNGSSVSSPIQLHHGDRILWGNNHFFRLNLPKKKKKAEREDEDQDPSMKNENSSEQLDVDGDSSSEVSSEVNFNYEYAQMEVTMKALGSNDPMQSILNSLEQQHEEEKRSALERQRLMYEHELEQLRRRLSPEKQNCRSMDRFSFHSPSAQQRLRQWAEEREATLNNSLMRLREQIVKANLLVREANYIAEELDKRTEYKVTLQIPASSLDANRKRGSLLSEPAIQVRRKGKGKQIWSLEKLDNRLLDMRDLYQEWKECEEDNPVIRSYFKRADPFYDEQENHSLIGVANVFLESLFYDVKLQYAVPIINQKGEVAGRLHVEVMRLSGDVGERIAGGDEVAEVSFEKETQENKLVCMVKILQATGLPQHLSHFVFCKYSFWDQQEPVIVAPEVDTSSSSVSKEPHCMVVFDHCNEFSVNITEDFIEHLSEGALAIEVYGHKINDPRKNPALWDLGIIQAKTRSLRDRWSEVTRKLEFWVQILEQNENGEYCPVEVISAKDVPTGGIFQLRQGQSRRVQVEVKSVQESGTLPLMEECILSVGIGCVKVRPLRAPRTHETFHEEEEDMDSYQDRDLERLRRKWLNALTKRQEYLDQQLQKLVSKRDKTEDDADREAQLLEMRLTLTEERNAVMVPSAGSGIPGAPAEWTPVPGMETHIPVIFLDLNADDFSSQDNLDDPEAGGWDATLTGEEEEEFFELQIVKQHDGEVKAEASWDSAVHGCPQLSRGTPVDERLFLIVRVTVQLSHPADMQLVLRKRICVNVHGRQGFAQSLLKKMSHRSSIPGCGVTFEIVSNIPEDAQGVEEREALARMAANVENPASADSEAYIEKYLRSVLAVENLLTLDRLRQEVAVKEQLTGKGKLSRRSISSPNVNRLSGSRQDLIPSYSLGSNKGRWESQQDVSQTTVSRGIAPAPALSVSPQNNHSPDPGLSNLAASYLNPVKSFVPQMPKLLKSLFPVRDEKRGKRPSPLAHQPVPRIMVQSASPDIRVTRMEEAQPEMGPDVLVQTMGAPALKICDKPAKVPSPPPVIAVTAVTPAPEAQDGPPSPLSEASSGYFSHSVSTATLSDALGPGLDAAAPPGSMPTAPEAEPEAPISHPPPPTAVPAEEPPGPQQLVSPGRERPDLEAPAPGSPFRVRRVRASELRSFSRMLAGDPGCSPGAEGNAPAPGAGGQALASDSEEADEVPEWLREGEFVTVGAHKTGVVRYVGPADFQEGTWVGVELDLPSGKNDGSIGGKQYFRCNPGYGLLVRPSRVRRATGPVRRRSTGLRLGAPEARRSATLSGSATNLASLTAALAKADRSHKNPENRKSWAS
notes: kinesin KIF13B, human, full length, point mutant K414A; molar ratio about 1:5 (mScarlet (I): sfGFP); also called KIF13BK414A-sfGFP; HsKIF13BK414A-sfGFP-StrepII; source: Sf9, purified (Strep-Tactin XT, gel filtration); for the two-colour assay Sf9 co-infected with the sfGFP-StrepII and the mScarlet-StrepII viruses; not shown: sfGFP, C-terminal, kept
binding result [1]: binds

B2: full-length human KIF13B (wild type), C-terminal sfGFP-StrepII (natural protein)
chain: B1 chain with A414K
notes: KIF13B, human, full-length cDNA from Transomics (BC172411); Predominantly monomeric in solution, minor dimer fraction (mass photometry); also called WT KIF13B; full-length KIF13B; source: Sf9 insect cells (baculovirus), purified (Strep-Tactin XT, gel filtration); not shown: sfGFP, C-terminal, kept
binding result [2]: binds

B3: full-length human KIF13B K414A, C-terminal sfGFP-StrepII (natural protein, UniProt Q9NQT8 1-1826, looked up)
chain: B1 chain
notes: also called KI13B^K414A; source: Sf9 insect cells (baculovirus), purified (Strep-Tactin XT, gel filtration); not shown: sfGFP, C-terminal, kept
binding result [3]: binds

B4: full-length human KIF13B V178Q, C-terminal sfGFP-StrepII (natural protein, UniProt Q9NQT8 1-1826, looked up)
chain: B1 chain with V178Q, A414K
notes: source: Sf9 insect cells (baculovirus), purified (Strep-Tactin XT, gel filtration); not shown: sfGFP, C-terminal, kept
binding result [3]: binds

B5: human KIF13B tail-truncated (a.a. 1–679), C-terminal sfGFP-StrepII (domain or fragment, UniProt Q9NQT8 1-679, looked up)
chain: MGDSKVKVAVRIRPMNRRETDLHTKCVVDVDANKVILNPVNTNLSKGDARGQPKVFAYDHCFWSMDESVKEKYAGQDIVFKCLGENILQNAFDGYNACIFAYGQTGSGKSYTMMGTADQPGLIPRLCSGLFERTQKEENEEQSFKVEVSYMEIYNEKVRDLLDPKGSRQTLKVREHSVLGPYVDGLSKLAVTSYKDIESLMSEGNKSRTVAATNMNEESSRSHAVFKITLTHTLYDVKSGTSGEKVGKLSLVDLAGSERATKTGAAGDRLKEGSNINKSLTTLGLVISALADQSAGKNKNKFVPYRDSVLTWLLKDSLGGNSKTAMVATVSPAADNYDETLSTLRYADRAKHIVNHAVVNEDPNARIIRDLREEVEKLREQLTKAEAMKSPELKDRLEESEKLIQEMTVTWEEKLRKTEEIAQERQKQLESLGISLQSSGIKVGDDKCFLVNLNADPALNELLVYYLKEHTLIGSANSQDIQLCGMGILPEHCIIDITSEGQVMLTPQKNTRTFVNGSSVSSPIQLHHGDRILWGNNHFFRLNLPKKKKKAEREDEDQDPSMKNENSSEQLDVDGDSSSEVSSEVNFNYEYAQMEVTMKALGSNDPMQSILNSLEQQHEEEKRSALERQRLMYEHELEQLRRRLSPEKQNCRSMDRFSFHSPSAQQRLRQWAEEREATL
notes: KIF13B, human, a.a; 1–679; truncated after the predicted second coiled-coil, within the MBS domain; also called KIF13B^Δtail; KIF13^Δtail; source: Sf9 insect cells (baculovirus), purified (Strep-Tactin XT, gel filtration); not shown: sfGFP, C-terminal, kept
binding result [4]: binds | binding result [2]: binds

B6: human KIF13B CAP-Gly fragment (a.a. 1685–1826), N-terminal sfGFP-StrepII (domain or fragment)
chain: QALASDSEEADEVPEWLREGEFVTVGAHKTGVVRYVGPADFQEGTWVGVELDLPSGKNDGSIGGKQYFRCNPGYGLLVRPSRVRRATGPVRRRSTGLRLGAPEARRSATLSGSATNLASLTAALAKADRSHKNPENRKSWAS
notes: KIF13B, human, a.a; 1685–1826: CAP-Gly domain and an ~80 residue unstructured C-terminal region; The sfGFP-StrepII tag is joined to the N-terminus of the fragment through a 3xGGGGS linker (pET28a); the methods hold here; also called KIF13B^CG; KIF13^CG; source: E. coli BL21-CodonPlus (DE3)-RIPL, purified (Strep-Tactin XT, HiTrap Q, Superdex 200); not shown: sfGFP, N-terminal, kept
binding result [2]: binds
